Experimental data taken from the supplement of paper PMC10126150.
± gives the standard deviation of the averaged measurements.

Test system: ATP
Assay: switch fluorescence ratio, 500 uM ATP over buffer (Cy3 cluster intensity, sum of 5 cycles each) (fold (ratio)); higher = stronger signal-on switching upon ATP binding; sequences stand for … in TCGTCGGCAGCGTCAGATGTGTATAAGAGACAGTTTTTTTTTTTTTTTTTTTTTTTTT…TC
Conditions: aptamer strand: ATP DNA aptamer (quencher-CACCTGGGGGAGTATTGCGGAGGAAGG + anchor), 100 nM annealed; ATP concentration: 500 uM
Outline: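 Exposure to 500 uM ATP lasted 15 min at 22 °C before imaging, and a selection-buffer image was taken beforehand, for Cy3-labelled switching-strand clusters on a modified Illumina MiSeq flow-cell annealed to 100 nM quencher-labelled ATP aptamer. Five buffer/ATP cycles were run with NaOH stripping and re-annealing between them. The fluorescence ratio per cluster is summed target-cycle over summed buffer-cycle Cy3 intensity, averaged per switch-domain sequence. Clusters outside 100-1000 RFU were excluded.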

Sequence	switch fluorescence ratio
GTTTATGGTT	1 ± 0.022
TTCTTCATAG	1.02 ± 0.015
TGGTAAACGG	0.988 ± 0.02
TCAGGGTTGG	0.978 ± 0.024
TGCAGCAGGT	1.18 ± 0.025
GTGGCCCCGG	1.02 ± 0.043
ACCAAATAAG	1.02 ± 0.023
TCGTGTACTG	1.041 ± 0.006
TAATTTCTTA	0.996 ± 0.014
ATGTTTTTTC	0.977 ± 0.037
TTAGCGAAGG	1.003 ± 0.0046
CATGATCCGT	1.008 ± 0.0093
TATTTGCGCA	1.06 ± 0.099
GGTTAGTACA	1.01 ± 0.041
TTCTGATCAG	1.01 ± 0.011
ATATTGCTGA	0.978 ± 0.078
CGCATAGGAC	3.16 ± 0.28
TGGGCAGGGT	1.02 ± 0.016
TGTGTAAGGC	1.03 ± 0.038
TTATAGTTTC	1.03 ± 0.057
GGGGGTAGCA	1.05 ± 0.077
TAGGGGGT	0.985 ± 0.027
GAAGTTTGTG	1.019 ± 0.0075
CGACTTGCGT	1.01 ± 0.012
ACCGGTTATA	1.03 ± 0.038
CATGTTAGTA	1.02 ± 0.021

Sequence	switch fluorescence ratio
TGGGGGAATT	1 ± 0.029
TTTTTACAGG	1.13 ± 0.16
TTAGATGAAT	1 ± 0.033
GGTATGGGGA	1 ± 0.022
AGTAGGGGTA	0.974 ± 0.039
TGAATCAACA	1.04 ± 0.037
GGGAAGAGGC	1.01 ± 0.038
GGTGTGGTGA	1.06 ± 0.049
ACTGTCTAAT	1.01 ± 0.026
TGAATTATTT	1.02 ± 0.035
CTATTTTTAG	0.9968 ± 0.0021
TCGAGGCACT	1.28 ± 0.17
ATCATTAATG	1.01 ± 0.014
TCGGGGATAT	3.05 ± 2.9
CATCCGGCGG	1.17 ± 0.038
GAATGGATGG	1 ± 0.011
CAGTCCGTTT	1.02 ± 0.012
TTATTCCGGT	1.006 ± 0.0024
GGGGTTACAT	0.9919 ± 0.0072
GCTTAAAAAT	0.986 ± 0.095
CAGTTCTGGG	0.9872 ± 0.0097
GGGACCGAAT	1.004 ± 0.0056
TTATTACT	0.981 ± 0.011
TACGTGCATA	1.122 ± 0.0033
GGCCGCAGGT	0.987 ± 0.023
CCGTATAAGG	1.023 ± 0.0038

Sequence	switch fluorescence ratio
TATGGTGAGC	1.01 ± 0.023
ATTGCCACGG	1.033 ± 0.0089
GAACTAGGTG	1.444 ± 0.0058
AAGAGCGAGG	0.945 ± 0.036
AGCTTTAGAC	1.09 ± 0.021
TTCCGGTCCG	1.16 ± 0.18
TAAGGCACGC	1.01 ± 0.027
TCCTCATTTG	1.005 ± 0.0078
TCATGTATTG	1.01 ± 0.037
GATACGATGG	0.983 ± 0.027
AGTGGTTCGG	0.993 ± 0.015
AGTACGGTGG	0.985 ± 0.064
TCGCATAGGT	1.1 ± 0.12
AAGTTAAGGG	0.995 ± 0.055
ATGGATTTGT	1.01 ± 0.021
CATCTACTGG	1.01 ± 0.018
GGGGACGGGA	0.989 ± 0.024
TCCGTAGTGT	2.12 ± 0.37
ATGTGGTAAT	0.984 ± 0.024
GCTTGGAGGG	0.983 ± 0.027
ATGAAGTTGT	1.019 ± 0.01
TAGTAGGGGT	1.002 ± 0.0061
AGGGGGGAGG	0.997 ± 0.026
AGGGGGCAAA	1.02 ± 0.045
GGTGGATTTG	0.981 ± 0.062
AGGGGATCGC	0.996 ± 0.034

Sequence	switch fluorescence ratio
TCCTCGAGCT	1.82 ± 1.2
GTATTAAACC	1.06 ± 0.023
CAAAAGTTGG	0.9923 ± 0.0052
GTTTGTAGTG	1.01 ± 0.026
CAGTCGGTTT	1.013 ± 0.0088
GCTGTAAGTT	0.9897 ± 0.0067
GGCTAAGGTC	1 ± 0.044
TAATTACCTC	1.04 ± 0.013
CCTGAGATAC	1.88 ± 1
ATTGAGAGAT	1.03 ± 0.014
TTAAGGGAGG	0.992 ± 0.03
TTTAACCGGT	1.047 ± 0.0073
GATGCGGCGT	1.04 ± 0.021
AGTATGATTT	0.98 ± 0.027
CTTTCGTGGA	1 ± 0.022
GTGGTTGGGG	1.01 ± 0.028
TGCCCGGTTT	1.01 ± 0.0077
GTCGTATGAG	1.01 ± 0.028
GTTTGGGGTA	0.986 ± 0.013
CCAGTAGGAG	1.07 ± 0.051
CACTGGAGAA	1.044 ± 0.0051
TACATTGACG	1.025 ± 0.0089
TCTCTATGTG	0.966 ± 0.036
ACTAGATACG	1.04 ± 0.018
GAGCCGGGTA	0.9982 ± 0.0063
TATCAGAAGC	1.012 ± 0.01

Sequence	switch fluorescence ratio
GTTTTGTATG	1.004 ± 0.0044
TACGTACGTT	1.41 ± 0.062
CAAATGGGTT	1.01 ± 0.083
CTCTTAGGAT	1.02 ± 0.023
TTTAAGAAAT	0.986 ± 0.011
GTTATTTGGG	0.979 ± 0.035
CTGTTTACTG	0.987 ± 0.014
GCTGTTTCGG	0.981 ± 0.01
CTTAGGGCGA	0.9728 ± 0.001
GGTACGAAGT	1.01 ± 0.027
ACGCGATAAC	4.27 ± 0.27
TCGTTCGTAT	0.9875 ± 0.004
TTTAATTA	1.01 ± 0.032
GGGGCTTCTG	1.03 ± 0.019
GTTTTGGGGG	1.02 ± 0.025
TACGGGCGGA	1.02 ± 0.034
CCGGGCTTAG	1.28 ± 0.047
AACTGAAGTC	0.976 ± 0.01
GTGGTTGGTA	1.02 ± 0.03
GCCTTGATAG	0.981 ± 0.0086
TTTCTTGGTT	0.991 ± 0.016
TTGACCAAAA	1.03 ± 0.055
TAGGTTCTAA	1.06 ± 0.079
AAGGGAAACA	1.04 ± 0.072
AGGAGATTAG	0.978 ± 0.029
AAGCAGGGGA	1.05 ± 0.032

Sequence	switch fluorescence ratio
CTAGTAGTGT	1.01 ± 0.022
CGCGTTTCCC	1.27 ± 0.038
ACCAATATAT	0.996 ± 0.033
AGGTCGAATT	1 ± 0.051
CGGTCCTATG	0.993 ± 0.029
TTTACGAGGT	1.01 ± 0.037
AGGGCCAAGT	0.997 ± 0.011
AACTCTTCTT	1.04 ± 0.035
TTAGGGAAGG	0.993 ± 0.02
TCGTTTTGCC	0.956 ± 0.02
TGCTTTATAT	1.18 ± 0.29
TAAATCTCTG	1.004 ± 0.0055
TTTTAATCGA	1.02 ± 0.043
GGGGGCGCAA	1.129 ± 0.011
TCTGGTTAAA	0.982 ± 0.013
CAGTGGCTTC	1.01 ± 0.023
GGGTAAGTTT	1.007 ± 0.0044
TAATAGTGTT	1.024 ± 0.0092
TGCGTGTGTC	1.05 ± 0.024
CCCGGGATAT	1.06 ± 0.056
ACGTGTCGGT	1.028 ± 0.0037
TGTTAATCTG	0.994 ± 0.021
GCTTCAGGAG	1.27 ± 0.024
